# Measured values reported in the nanobody polyreactivity screen of Harvey et al. (2022).
# Test: yeast display, Sf9 membrane polyspecificity reagent, FACS + sequencing; frameworks hold sequencing errors
# Outline: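 Nanobodies from a synthetic yeast display library (Saccharomyces cerevisiae BJ5465), induced 36–48 hours with galactose, were stained 1 hour at 4 °C with 10% biotinylated, detergent-solubilized Sf9 membrane reagent, enriched on streptavidin microbeads, then FACS-sorted. Anti-HA (expression) and streptavidin (reagent binding) fluorescence set low and high (top ~1%) gates. Polyreactivity labels come from the gate of origin. Genes were colony-PCR amplified, MiSeq 2 × 250 sequenced and filtered by CDR length.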
row,Sequence,polyreactivity (PSR sort gate)
1,QVQLVVSGGGLVQAGGSLRLSCAASGYIFVYNAMGWYRQAPGKERELVSAITDGGGSTYADSVKGRFTISRDNAKNTVYLQMNSLKPEDTAVYYCAALYSDTTWYVLYYYWGQGTQVTVSS,low polyreactivity
2,QVQLVVSGGGLVQAGGSLRLSGAASGSIFWVYAMGWSRQAPGKELELVAAINWRGGSTYYADSVKGRFTISRDNAKNTVYLQKNSLKPEDTAVYNCAVQPNYYGMGYWGQGTQVTVSS,high polyreactivity
3,QVQLVYSGGGLVQAGGSLRLSCAASGRTFSWYAMGWYRTAPGKESELVAAITWSGGSTYYADSVKGRFTISRDNAKNTVYLEMNSLKPEDTAVYFCNALRYSNRRYYSTGPHDYWGQGTHVTVSS,high polyreactivity
4,QVQLVYSGGGLVQAGGSLSLSCAASGSTIDGYAMGWYRQAPGKERELVAAISSSGASTYYADSVKGRFTISRDNAKNTVYLQMNSLKPEDTAVYYCNRVTCQQKNDYWGQGTQVTVSS,high polyreactivity
5,QVQLVYSGGGLVQSGGSLRLSCAASGYIVQPYAMGWYRQAQGKERELVAPISWRGGSTYSADSVKGRFTISRDNAKNTVYLQMYSLKPEDTAVYYFAKDYYYGLEHYGYWGQGTQVTVSS,low polyreactivity
6,QVQNEESGGGLVQAGGSLRLSCAASGRNFSSYAMGWYRQAPGKERELVAAISRAGGTYYADSVKGRFTISRDNAKNTVYLQMNSMKPEDTAVYYCAARQSVYGLRSDFYYWGQGTQVTVSS,high polyreactivity
7,QVQNVESGRGLVQAGGSLRISCAASGDYAMGWSIQAPGTERELVAAISRRGGSTYYADSVKGRFTISRDNAKNTVYLQMNSLKQDDTAVYSCAADYSSRNRGNRYRLDYWGQGTQVTVSS,high polyreactivity
8,QVQPVESAGGLVQAGGSLRLSCAASGSTFARYAMGWFSQAPGKERELVAVITWTGGSTYADSVKGRFTISRDNAKNTVYLQMNSLNPEDTAVYYCNAVHATRRRLGYWGQGTQVTVSS,low polyreactivity
9,QVQPVESGGGLVQAGGSLRLSCAASGRTFWYYTMGWYRQAPGKERELVAAITSVGSTYYADSVKGRFTISRDNAKNTVYLQMNSLKPEDTAVYYCAKLYSYTHQSFDHWGQGTQVTVSS,high polyreactivity
10,QVQPVESGGGLVQAGGSLRLSCAASGSTFTVNAMRWYRQPPGNERELVAAITFSGTSTYYADSVKGRFTISRDNAKNTVYLQMNSLKPEDTAVYYCNAVVWGYSKSLGDTRTKYEYWGQVTQVTVSS,high polyreactivity
11,QVQQLESAGGLVQAGGSLRLSCAASGTITVLYKMGWFRQAPGKEREFVASINYGTSTYYADSVKGRFSVSPDSAKHTVYLQMNSLNPEDTAVYYCAAAYRWQDVYRYWGLGTQVTVSS,low polyreactivity
12,QVQQQESGGGLVQAGGSLRLSCAASGNTSDTGYMGWYRQAPGKERKVVASIDYGSNTYYADSVKVRFTISRDNAKNTVYLQMNSLKPEDTAVYYCAAYYIGDYTLVYWGQGTQVTVSS,high polyreactivity
13,QVQQQESGGGLVQAGGSLRLSCAASGTIFQLTVMGRYRQAPGKDRELVASIDYGGNTNYADSVKGRFTISRDNAKNTVYLQMNCRKPEDTAVYYCAASSDSWTTHPYWGQGTQVTVRS,low polyreactivity
14,QVQQQESGGGLVQAGGSLRLSCAASGYIFQAENMGWYRQAPGKERELVAAITIGASTYYADSVRGRFTISRDNAKNTVYLQMNSVKPEDTAVYYCAAKRFQYRTLYDYWGQGTQVTVSS,high polyreactivity
15,QVQQVESWGGLLQAGGSLRLSCAASGSIFTLYAMGWYREAPGKERELVADITWSGGSTYYADSVKGRFTISRDNAKNTVYLEMNSLKPEDTAVYYCAIDYLAGGPWEGHVEREYDYWGQGTQVTVSS,low polyreactivity
16,QVQREESGGGLVQAGGSLRLSCAASGFTFRYYAMGRYRQAPGKERELVAAITWSGGSTYYADSVKGRFTISRDNAKNTVYLQLNSLKPEDTAVYYCNVEAVAWWPEEDYWGQGTQVTVSS,high polyreactivity
17,QVQREESGGGLVQAGGSLRLSCAASGLTFTTYAMGWYRQAPGKERELVAAISRRGSRTYYADSVKGRFTISRDNAKNTVYLQMNSLKPEDTAVYYCNALTGSFKTYSFDYWGQGSQVTVSS,high polyreactivity
18,QVQRVDSGGGIVQAGGSLRLSCADSGSIFNRYAMGWYRQAPGKERELFAAISSSSGSTYYADSVKGRFTISRDNSKNTVYLQMNSLKPEDTAVYYCATRRKVVPTQVGYYYRGGVDYWGQGTQVTVSS,high polyreactivity
19,QVQRVDSGGGLVQAGGSLRLSCAASGSTFPGYAMGWYRQAPGKERELVAAISKRGGSTRYADSVKGRFTISRDNAKNTVYLQMNSLKPEDTAVYYCAASYSYSGSGGGYWGQVTQVTVSS,high polyreactivity
20,QVQRVESGGDLVQAGGSLRLSCAASGFIYTYYAMGWYRLAPGKERDFVATINWSDGSTRYADSVKGRFTISRDNAKNTVYLQMNSLKPEDTAVYYCAKDWFNRPSGEMDYCGQGTQVTVSS,low polyreactivity
21,QVQRVESGGGLGQAGGSLRLSCAASGIIFDYYAMGWYRQAPGNERELVAAITTSGGRTYYADSVKGRFTISRDNEKNTVYLQMNRLKPEDTAVYYCAASRPSPRPRDGYWGQGTQVTVSS,high polyreactivity
22,QVQRVESGGGLVLAGGSLRLSSAASGITFVRYAMGGYRQAPVKERELVAVISRGGITNYADSVMGRFTISRDNAKNTVYLQMNSLKPEDTAVYYCAVRARSYVRTYDYWGQGTQVTVSS,high polyreactivity

row,Sequence,polyreactivity (PSR sort gate)
1,QVQRVESGGGLVQAGCSLRLSCAATGSTFRDYTMGGYRQEPGKERELVADITWRSGRTYYADSVMGRFTISRDYAMNTVYLQMNSLKPEDTAVYYCAAATRVKVNGLYSYYYRYDYWGLGTQVTVSS,high polyreactivity
2,QVQRVESGGGLVQAGGRLLLSCAASGSIFPPNAMGWYREAPGKERELVAAISGSGRTYYADSVKGRFTISRDNAKNTVYLQMNSLKPEDTAVYYCAARQQRRPTTRDFGFWGQGTQVTVSS,high polyreactivity
3,QVQRVESGGGLVQAGGRLRLSCAASGRIFIYYAMGWYRQAPGKERELVAAISSSGASTYYADSVKGRFTISRDNAKNTVYLQMISLKPEDTAVYYCAALYYRGGAFPLDYWGQGTQVTVSS,low polyreactivity
4,QVQRVESGGGLVQAGGRLRLSCAASGSTFRQYAMGWYRQAPGKERELVAAITGGGGSTYYADSVKGRFTISRDNAKNTVYLQMNSLKPEDTAVYYCNAVHRYERDYWGQGTQVTVSS,high polyreactivity
5,QVQRVESGGGLVQAGGSLGLSCAATGSTFTVYAMGWYRQATGTERELVASITFTGGSTYYADSVKGRFTISRDNAKNTVYLQMISLKPEVTEVYYCAAYGWRVHDRWFFERDYWGQGTQVTVSS,high polyreactivity
6,QVQRVESGGGLVQAGGSLRLSCAAAGLTFYGYAMGWYRQAPGKERELVAAITRSGGSTYYADSVKGRFTISRDNAKNTVYLQMNSLKPEDTAVYYCAAEEEYLYQSNRLHPYDYWGQGTQVTVSS,low polyreactivity
7,QVQRVESGGGLVQAGGSLRLSCAASGANFSRYAMGWYRPAPGKERELVAAITSGGSTNYADSVKGRFTISRDNAKNTVYLQMTSLKPEDTAVYYCNKRYVVYPGNYWRYDYWGQGTQVTVSS,high polyreactivity
8,QVQRVESGGGLVQAGGSLRLSCAASGFIFKDNAMGWYRQARGKERELVAVISGTGGRTNSADSVKGRFTISRDNAKNTVYLQMNSLKPEDTAVYYCAAEGYYTSTYDLYDYYYWGQGTQVTVSS,low polyreactivity
9,QVQRVESGGGLVQAGGSLRLSCAASGFIFRRYAMGWYRQAPGKERELVASISSGGNTNYADSVKGRFTISRDNAKNTVYLQMNSLKPEDTAVYYCNDEYRWIAYGYWGQGTQVTVSS,high polyreactivity
10,QVQRVESGGGLVQAGGSLRLSCAASGFIFYDYMGWYRQAPGKERVLVAVISYSGSSTYYADSVKGRFTISRDNAKNTVYLQMNSLKPEDNAVYYCAARKVNGWDYDYWGQGTQVTVSS,low polyreactivity
11,QVQRVESGGGLVQAGGSLRLSCAASGFIFYGNTMGWYREAPGKERELVASITSGSSTHYAYSVKGRFTISRDNAKNTVYLQMNSLKPEDTAVYYCIVDDIQFGKYDYWGQGTQVTVSS,low polyreactivity
12,QVQRVESGGGLVQAGGSLRLSCAASGIIFDSYAMGWYRQAPGKERELVAAITSDSGRTYYADSVKGRFTISRDNAKNTVYLQMNSLKPEDTAVYYCAKGWDGTYDYWGQGTQVTVSS,low polyreactivity
13,QVQRVESGGGLVQAGGSLRLSCAASGRIFSNYAMGWYRQAPGKEREFVAAISGSGGSTYYADSVKGRFTISRDNAKNTVYLQMNSLKPEDTAVYYCSTSGPQYYSRNFDYWGQGTQVTVSS,low polyreactivity
14,QVQRVESGGGLVQAGGSLRLSCAASGRIFSWYTMGWYRQAPGKERELVAVITSGGTTKYADSVKGRFTISRDNAKNTVYLQMNSLKPEDTAVYYCNVAGRDYAVRWGSFDYWGQGTQVTVSS,low polyreactivity
15,QVQRVESGGGLVQAGGSLRLSCAASGRIFVRNVMGWYRQAPGKEREFVAAITTRGGSTYYADSVKGRFTISRDNAKNTVYLQMNSLKPEDTAVYYCAARYTLRLYWGQGTQVTVSS,high polyreactivity
16,QVQRVESGGGLVQAGGSLRLSCAASGRIFYPNAMGWYRQAPGTEREWVAGITRGGSTNYADSVKGRFTISRDNAKNTVYLQMNSLKPDDSAVDYCAKAIPAKIYSEAGSDYWGQGTQVTVSS,low polyreactivity
17,QVQRVESGGGLVQAGGSLRLSCAASGRILGKYAMGRYIQAPGKEREVVAAIRLRGGSTYYADSVKGRFTISRDNAKNTVYLQMNSLKPEDTAVYYCAATYWDRSQAYNYWGQGTQVTVSY,high polyreactivity
18,QVQRVESGGGLVQAGGSLRLSCAASGRTFAGYAMGWYRQAPGKERELVAAITTGGSTKYADSVKGRLTISRDNAKNTVFLQRTSLKPEDTAVYYCNARKRVYSGNTLMYYWGQGTQVTVSS,high polyreactivity
19,QVQRVESGGGLVQAGGSLRLSCAASGRTFLQYAMGWYSQAPGKVREFVAAINWSGGSTYYAASVKRRFTISRDNAKNTVYLPMHSLKPEDTAVYYCAARRVYLGEYDYWGQGTQVTVSS,high polyreactivity
20,QVQRVESGGGLVQAGGSLRLSCAASGRTFRYYAMGWYRQAPGKERELVAAITSGGSTSYADSVKGRFTISRDNAKNTVYLQMNSLKPEDTAVYYCAAVPAGLWATYPQFRYGYWGQGTQVTVSS,high polyreactivity
21,QVQRVESGGGLVQAGGSLRLSCAASGRTFSKNAMGRTRQAPGQETELVAAISGSGGSTYYADSVKGRFTISRDNAKNTVYLQMNSLKPEDTAVYYCADRYTVRRSGYWGQGTQVTVSS,high polyreactivity
